Test results as given in patent US20260258131A1 (ADAGENE PTE, published 2026).
Positions count from the first letter of the chain named. Names and notes keep the numbering of the source. One block for each binder: values may come before it.

Legend:
[1] = target: T1, Recombinant human CTLA4-hisFc (human, UniProt P16410 36-161, limits assumed); test: ELISA, coated CTLA4-hisFc, after MMP-9 cleavage
T1 construct: Coated on the ELISA plate; the whole UniProt entry is named; also called recombinant human CLTA4-hisFc; its antigen; not shown: his tag and Fc
T1 sequence (looked up): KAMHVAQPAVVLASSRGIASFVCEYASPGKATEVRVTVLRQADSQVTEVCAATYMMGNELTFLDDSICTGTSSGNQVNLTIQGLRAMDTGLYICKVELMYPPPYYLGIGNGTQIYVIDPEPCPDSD
Procedure: (§1) Plates were blocked with PBS supplemented with 3% non-fat milk at 37° C. for 1 hour. After washing, 100 µL of 3-fold serial dilutions of antibodies were added to each well. After incubation at 37° C. for 1 hour, plates were washed four times, and 100 μL HRP conjugated anti-human IgG (Fab specific) (1:6000 dilution) was added to each well. Plates were incubated at 37° C. for 1 hour, washed four times, and then 50 μL TMB substrate solution was added to each well, and the plate was incubated at room temperature. Absorbance at 450 nm was measured after the reactions were stopped with 50 μL H2SO4 per well. The EC50 was evaluated by fitting the ELISA data using the sigmoidal (four-parameter logistic equation) model of GraphPad Prism 6 software. Experiments for some activatable antibodies were performed twice or more, leading to two or more calculated masking efficiencies being obtained for each of these activatable antibodies.
(§2) The purified activatable antibodies were treated with the proteases which recognize the cleavage sequences, and were then tested to determine whether removal of the masking peptide restored their activity. […] The reactions were carried out at 37° C. for 24 hours. […] The masking efficiency was then measured by ELISA as described above.

[2] = target: recombinant mouse CTLA-4 protein (mouse, UniProt P09793 36-161, limits assumed); test: SPR (Biacore), antibody captured by anti-human IgG Fc, CTLA-4 in flow
Procedure: (§3) Serial dilutions of recombinant CTLA-4 proteins of different species origins were sequentially loaded and flowed through the chip to measure the kinetics of CTLA-4 antigen association (kₐ), followed by a buffer flow-through phase for dissociation kinetics (kd) measurement. The binding affinity (KD) is then calculated with […].

[3] = target: T2, recombinant rat CTLA-4 protein (rat, UniProt Q62859 36-161); test: as above
T2 sequence: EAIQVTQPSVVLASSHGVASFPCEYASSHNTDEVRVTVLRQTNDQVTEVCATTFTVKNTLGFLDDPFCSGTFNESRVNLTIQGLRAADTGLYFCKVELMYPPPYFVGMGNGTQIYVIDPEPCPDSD
Procedure: as §3

[4] = target: T3, biotinylated CTLA-4 protein (UniProt P16410 36-161, limits assumed, biotinylated (sites not given)); test: competition ELISA, biotinylated CTLA-4 on coated CD80 (competitor CD80)
T3 construct: also called receptor CTLA-4
T3 sequence (looked up): T1 sequence (looked up)
From the text: (§4) Relative CTLA-4 and its ligand binding was monitored by reading the absorbance at 450 nm wavelength in the micro-plate reader.

[5] = target: T3, biotinylated CTLA-4 protein; test: competition ELISA, biotinylated CTLA-4 on coated CD86 (competitor CD86)
From the text: as §4

[6] = target: T4, recombinant human CTLA-4 protein (human, UniProt P16410 36-161, limits assumed); test: SPR (Biacore), antibody captured by anti-human IgG Fc, CTLA-4 in flow
T4 sequence (looked up): T1 sequence (looked up)
Procedure: as §3

[7] = target: T5, recombinant cynomolgus monkey CTLA-4 protein (cynomolgus monkey, UniProt G7PL88 36-161); test: as above
T5 sequence: T1 sequence (looked up) with S14N, I18T, L106M
Procedure: as §3

[8] = target: T6, human CTLA4 expressed on cells (human, UniProt P16410 36-223); test: cell-based or functional assay
T6 sequence (looked up): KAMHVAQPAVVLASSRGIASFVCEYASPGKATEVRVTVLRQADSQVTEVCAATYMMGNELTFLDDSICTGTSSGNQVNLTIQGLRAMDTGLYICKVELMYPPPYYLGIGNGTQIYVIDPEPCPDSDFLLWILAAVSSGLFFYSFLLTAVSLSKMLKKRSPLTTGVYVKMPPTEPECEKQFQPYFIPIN

[9] = target: T1, Recombinant human CTLA4-hisFc; test: ELISA, coated CTLA4-hisFc
Procedure: as §1, §2

EC50 [1]: 0.313 nM | Kd [2]: 0.63 nM | Kd [3]: 0.69 nM | IC50 [4]: 280 nM | IC50 [5]: 17.5 nM
B1: TY24652-MMP9 (antibody, IgG1)
heavy: not shown
light: DIQLTQSPSSLSASVGDRVTITCRASQSVRGRFLAWYQQKPGKAPKLLIYDASNRATGIPSRFSGSGSGTDFTLTISSLQPEDFATYYCQQSSSWPPTFGQGTKVEIKRTVAAPSVFIFPPSDEQLKSGTASVVCLLNNFYPREAKVQWKVDNALQSGNSQESVTEQDSKDSTYSLSSTLTLSKADYEKHKVYACEVTHQGLSSPVTKSFNRGEC
notes: TY24652 after 24 h with MMP-9; IgG1 Fc with S239D/I332E

Kd [6]: 32.5 nM | Kd [7]: 32.3 nM | Kd [2]: 49.4 nM | Kd [3]: 59.5 nM | IC50 [4]: > 20000 nM | IC50 [5]: > 4000 nM
B2: TY24652 (antibody, human IgG1, kappa)
heavy: not shown
light: ETLCEPFATSVCRPGGGPLGLAGGGSDIQLTQSPSSLSASVGDRVTITCRASQSVRGRFLAWYQQKPGKAPKLLIYDASNRATGIPSRFSGSGSGTDFTLTISSLQPEDFATYYCQQSSSWPPTFGQGTKVEIKRTVAAPSVFIFPPSDEQLKSGTASVVCLLNNFYPREAKVQWKVDNALQSGNSQESVTEQDSKDSTYSLSSTLTLSKADYEKHKVYACEVTHQGLSSPVTKSFNRGEC
notes: also called non-cleaved form TY24652

ADCP reporter activity (luciferase), EC50 [8]: 5.6 nM | EC50 [9]: 0.298 nM | Kd [7]: 0.37 nM | Kd [2]: 0.5 nM | Kd [3]: 0.78 nM
B3: TY21580 (antibody, human IgG1, V domains shown)
VH: EVQLVESGGGLVQPGGSLRLSCAASGYSISSGYHWSWIRQAPGKGLEWLARIDWDDDKYYSTSLKSRLTISRDNSKNTLYLQLNSLRAEDTAVYYCARSYVYFDYWGQGTLVTVSS
VL: DIQLTQSPSSLSASVGDRVTITCRASQSVRGRFLAWYQQKPGKAPKLLIYDASNRATGIPSRFSGSGSGTDFTLTISSLQPEDFATYYCQQSSSWPPTFGQGTKVEIKR
notes: also called parental antibody TY21580
